Source: the supplement of paper PMC10065799, “High-throughput profiling of sequence recognition by tyrosine kinases and SH2 domains using bacterial peptide display” (eLife, 2023)

Key:
SHP2-C SH2 = assay: SH2 binding enrichment of the phosphorylated peptide, bacterial display (enrichment ratio); higher = better substrate or ligand; peptides without Tyr show the background
c-Src SH2 = assay: as above
Grb2 SH2 = Grb2 SH2 (UniProt P62993); assay: as above
Fer (mouse) = assay: phosphorylation enrichment, bacterial display (enrichment ratio); higher = better substrate or ligand; peptides without Tyr show the background
FGFR1 = FGFR1 (UniProt P11362); assay: as above
FGFR3 = FGFR3 (UniProt P22607); assay: as above
Sequence of FGFR3 (P22607 whole entry, looked up): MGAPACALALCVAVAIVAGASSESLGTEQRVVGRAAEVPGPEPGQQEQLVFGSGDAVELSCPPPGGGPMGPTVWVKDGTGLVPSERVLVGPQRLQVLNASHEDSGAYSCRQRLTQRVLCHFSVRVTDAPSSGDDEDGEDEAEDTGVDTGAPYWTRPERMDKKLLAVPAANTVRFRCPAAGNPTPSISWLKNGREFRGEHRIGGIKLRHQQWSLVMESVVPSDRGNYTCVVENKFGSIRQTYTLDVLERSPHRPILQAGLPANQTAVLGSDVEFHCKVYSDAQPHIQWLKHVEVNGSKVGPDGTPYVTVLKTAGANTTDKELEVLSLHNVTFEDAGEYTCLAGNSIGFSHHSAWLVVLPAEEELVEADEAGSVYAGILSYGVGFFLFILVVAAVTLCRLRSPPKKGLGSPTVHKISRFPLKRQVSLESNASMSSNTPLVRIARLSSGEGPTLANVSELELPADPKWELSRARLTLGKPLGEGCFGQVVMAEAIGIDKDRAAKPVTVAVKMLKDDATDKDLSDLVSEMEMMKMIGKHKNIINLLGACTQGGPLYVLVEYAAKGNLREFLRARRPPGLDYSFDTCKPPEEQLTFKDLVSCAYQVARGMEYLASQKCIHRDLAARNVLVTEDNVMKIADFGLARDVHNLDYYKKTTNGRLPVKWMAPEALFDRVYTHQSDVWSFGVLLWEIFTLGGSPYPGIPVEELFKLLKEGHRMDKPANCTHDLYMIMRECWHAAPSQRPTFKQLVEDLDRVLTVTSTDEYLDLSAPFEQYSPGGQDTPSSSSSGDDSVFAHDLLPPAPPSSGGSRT

Fyn = Fyn (UniProt P06241); assay: as above
Sequence of Fyn (P06241 whole entry, looked up): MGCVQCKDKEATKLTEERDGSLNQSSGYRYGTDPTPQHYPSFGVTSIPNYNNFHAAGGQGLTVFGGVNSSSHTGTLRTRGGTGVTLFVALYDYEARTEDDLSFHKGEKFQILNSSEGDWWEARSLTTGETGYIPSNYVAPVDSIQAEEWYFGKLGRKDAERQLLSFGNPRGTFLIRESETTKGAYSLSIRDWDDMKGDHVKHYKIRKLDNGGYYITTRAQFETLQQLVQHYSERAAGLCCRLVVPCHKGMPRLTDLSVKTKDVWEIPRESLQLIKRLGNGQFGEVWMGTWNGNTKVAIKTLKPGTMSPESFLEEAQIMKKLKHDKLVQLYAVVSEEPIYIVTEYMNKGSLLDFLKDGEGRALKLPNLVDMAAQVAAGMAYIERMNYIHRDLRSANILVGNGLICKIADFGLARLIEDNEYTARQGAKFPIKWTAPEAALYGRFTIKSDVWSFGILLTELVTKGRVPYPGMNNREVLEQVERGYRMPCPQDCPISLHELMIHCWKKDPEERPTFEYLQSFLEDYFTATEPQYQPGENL

Fes = Fes (UniProt P07332); assay: as above
EPHB2 = EPHB2 (UniProt P29323); assay: as above
Sequence of EPHB2 (P29323 whole entry, looked up): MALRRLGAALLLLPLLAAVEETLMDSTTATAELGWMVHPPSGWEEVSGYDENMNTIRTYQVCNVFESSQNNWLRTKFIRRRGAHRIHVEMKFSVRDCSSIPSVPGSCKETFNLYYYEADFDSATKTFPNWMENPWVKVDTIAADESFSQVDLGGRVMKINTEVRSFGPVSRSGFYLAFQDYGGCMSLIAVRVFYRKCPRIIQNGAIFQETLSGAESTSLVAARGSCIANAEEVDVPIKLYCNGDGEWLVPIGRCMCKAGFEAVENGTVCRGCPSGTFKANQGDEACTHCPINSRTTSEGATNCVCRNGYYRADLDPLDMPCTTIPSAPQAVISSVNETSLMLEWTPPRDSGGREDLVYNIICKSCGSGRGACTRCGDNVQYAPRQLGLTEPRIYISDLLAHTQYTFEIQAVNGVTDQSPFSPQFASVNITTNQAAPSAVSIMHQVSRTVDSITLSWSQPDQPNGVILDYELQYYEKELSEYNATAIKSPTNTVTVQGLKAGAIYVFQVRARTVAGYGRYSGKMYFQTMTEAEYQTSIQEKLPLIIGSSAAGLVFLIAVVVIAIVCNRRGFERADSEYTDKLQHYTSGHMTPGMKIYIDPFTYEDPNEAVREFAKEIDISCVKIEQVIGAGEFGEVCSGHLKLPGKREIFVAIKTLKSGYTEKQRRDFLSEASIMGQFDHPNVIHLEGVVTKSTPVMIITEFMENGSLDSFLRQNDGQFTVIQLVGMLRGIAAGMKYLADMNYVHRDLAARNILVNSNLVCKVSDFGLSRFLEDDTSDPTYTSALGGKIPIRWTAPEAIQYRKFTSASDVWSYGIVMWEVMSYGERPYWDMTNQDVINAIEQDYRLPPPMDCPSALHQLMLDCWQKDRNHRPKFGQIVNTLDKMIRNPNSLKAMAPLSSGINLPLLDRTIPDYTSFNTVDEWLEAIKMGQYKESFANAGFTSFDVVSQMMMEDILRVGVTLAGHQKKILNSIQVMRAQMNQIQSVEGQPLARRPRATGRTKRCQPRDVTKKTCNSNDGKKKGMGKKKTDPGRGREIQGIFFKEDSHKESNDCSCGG

AncSZ = assay: as above
MERTK = MERTK (UniProt Q12866); assay: as above
EPHB1 = EPHB1 (UniProt P54762); assay: as above
Hck = Hck (UniProt P08631); assay: as above
Sequence of Hck (P08631 whole entry, looked up): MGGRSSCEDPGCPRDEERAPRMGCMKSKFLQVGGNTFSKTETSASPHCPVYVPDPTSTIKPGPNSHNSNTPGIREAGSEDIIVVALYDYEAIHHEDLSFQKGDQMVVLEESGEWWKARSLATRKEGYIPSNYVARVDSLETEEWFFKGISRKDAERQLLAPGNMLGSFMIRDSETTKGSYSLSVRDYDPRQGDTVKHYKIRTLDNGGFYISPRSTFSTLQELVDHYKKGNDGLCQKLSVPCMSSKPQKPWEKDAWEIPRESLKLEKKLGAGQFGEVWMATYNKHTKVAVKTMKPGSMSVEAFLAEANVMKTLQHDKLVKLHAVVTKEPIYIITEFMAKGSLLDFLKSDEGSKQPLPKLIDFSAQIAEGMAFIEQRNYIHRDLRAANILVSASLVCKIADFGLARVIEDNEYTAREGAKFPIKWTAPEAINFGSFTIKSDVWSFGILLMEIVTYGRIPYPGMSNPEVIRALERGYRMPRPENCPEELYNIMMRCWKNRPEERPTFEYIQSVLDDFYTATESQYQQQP

Jak2 = Jak2 (UniProt O60674); assay: as above
Sequence of Jak2 (O60674 whole entry, looked up): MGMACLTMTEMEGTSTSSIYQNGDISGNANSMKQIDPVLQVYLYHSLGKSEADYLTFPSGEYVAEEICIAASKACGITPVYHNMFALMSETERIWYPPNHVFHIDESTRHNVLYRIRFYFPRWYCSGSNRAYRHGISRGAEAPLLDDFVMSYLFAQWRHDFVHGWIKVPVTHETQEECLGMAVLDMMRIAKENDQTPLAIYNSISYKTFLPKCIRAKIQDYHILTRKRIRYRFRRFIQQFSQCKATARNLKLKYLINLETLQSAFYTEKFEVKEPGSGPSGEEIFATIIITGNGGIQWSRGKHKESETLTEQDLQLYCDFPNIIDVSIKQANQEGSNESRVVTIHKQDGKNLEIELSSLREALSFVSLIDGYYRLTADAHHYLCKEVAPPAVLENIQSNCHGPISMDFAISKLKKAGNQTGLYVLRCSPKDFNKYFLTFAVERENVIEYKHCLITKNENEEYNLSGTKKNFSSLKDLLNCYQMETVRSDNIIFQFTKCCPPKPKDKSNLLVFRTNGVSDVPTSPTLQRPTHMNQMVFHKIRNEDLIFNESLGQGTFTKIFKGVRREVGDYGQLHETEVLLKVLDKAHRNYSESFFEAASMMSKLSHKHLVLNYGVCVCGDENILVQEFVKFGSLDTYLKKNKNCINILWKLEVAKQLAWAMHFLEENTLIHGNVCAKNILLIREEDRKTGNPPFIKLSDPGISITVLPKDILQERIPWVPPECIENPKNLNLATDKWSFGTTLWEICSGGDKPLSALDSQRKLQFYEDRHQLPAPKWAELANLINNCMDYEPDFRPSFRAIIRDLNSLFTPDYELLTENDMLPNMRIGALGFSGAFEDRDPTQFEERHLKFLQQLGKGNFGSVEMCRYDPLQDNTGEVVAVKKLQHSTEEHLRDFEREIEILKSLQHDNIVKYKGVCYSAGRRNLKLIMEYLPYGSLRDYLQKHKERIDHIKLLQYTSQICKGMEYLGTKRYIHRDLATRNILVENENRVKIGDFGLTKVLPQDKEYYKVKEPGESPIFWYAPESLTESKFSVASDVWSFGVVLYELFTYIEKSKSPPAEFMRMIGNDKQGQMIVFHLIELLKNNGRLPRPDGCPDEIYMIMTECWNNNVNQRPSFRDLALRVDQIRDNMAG

c-Src = assay: as above
c-Abl (mouse) = assay: as above
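Throughout, for SH2 binding enrichment of the phosphorylated peptide, bacterial display: peptide library displayed on the E. coli surface as eCPX fusions, selected cells deep-sequenced, score is each peptide's frequency after selection divided by its frequency in the input.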
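Throughout, for phosphorylation enrichment, bacterial display: 11-residue human phosphosite peptides and single-mutation variants displayed on the E. coli surface, counted by deep sequencing, each peptide's frequency after selection divided by its frequency in the unselected input library; frequency after pTyr selection over input frequency; kinase dosed for 20-30% of maximal phosphorylation in three min.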

Sequence of Grb2 SH2 (P62993 whole entry, looked up): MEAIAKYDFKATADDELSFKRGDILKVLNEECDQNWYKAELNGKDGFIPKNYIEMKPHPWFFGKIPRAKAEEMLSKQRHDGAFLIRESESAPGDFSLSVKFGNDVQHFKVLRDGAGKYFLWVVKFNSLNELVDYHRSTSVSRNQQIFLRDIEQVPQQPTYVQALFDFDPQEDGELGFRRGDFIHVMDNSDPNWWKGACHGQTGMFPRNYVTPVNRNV

Sequence | SH2 binding enrichment (SHP2-C SH2) | SH2 binding enrichment (c-Src SH2) | SH2 binding enrichment (Grb2 SH2) | phosphorylation enrichment (Fer (mouse)) | phosphorylation enrichment (FGFR1) | phosphorylation enrichment (FGFR3) | phosphorylation enrichment (Fyn) | phosphorylation enrichment (Fes) | phosphorylation enrichment (EPHB2) | phosphorylation enrichment (AncSZ) | phosphorylation enrichment (MERTK) | phosphorylation enrichment (EPHB1) | phosphorylation enrichment (Hck) | phosphorylation enrichment (Jak2) | phosphorylation enrichment (c-Src) | phosphorylation enrichment (c-Abl (mouse))
IMVFVYCRVFQ [ADRB2_Y219_S220C] | 1.1 | 0.768 | 1.41 | 0.435 | 0.841 | 0.632 | 0.51 | 0.836 | 0.488 | 0.729 | 0.449 | 0.424 | 0.473 | 0.699 | 0.395 | 0.63
INASGYRIGPA [ACSM1_Y477] | 0.633 | 0.453 | 0.799 | 0.467 | 0.349 | 0.367 | 0.328 | 0.502 | 0.374 | 0.479 | 0.33 | 0.371 | 0.385 | 0.401 | 0.433 | 0.36
INPIIYAFVGG [CCR5_Y297_E302G] | 0.57 | 0.491 | 0.746 | 6.66 | 4.39 | 3.51 | 6.26 | 2.1 | 9.68 | 1.14 | 8.42 | 11.5 | 6.35 | 1.55 | 5.05 | 14.4
INSLKYAFNIS [EIF2B5_Y583_YF] | 0.833 | 0.44 | 0.944 | 0.385 | 0.451 | 0.567 | 0.311 | 0.818 | 0.475 | 0.722 | 0.349 | 0.438 | 0.424 | 0.809 | 0.379 | 0.632
IPKTWYSAEQF [CD207_Y217] | 0.914 | 0.574 | 0.876 | 0.448 | 0.494 | 0.538 | 0.522 | 0.939 | 3.04 | 0.855 | 9.16 | 3.19 | 0.542 | 0.681 | 0.615 | 0.526
IRCQGYSHRIL [MYO3B_Y993_R990C] | 0.915 | 0.824 | 0.925 | 0.47 | 0.423 | 0.506 | 0.493 | 0.664 | 0.558 | 0.723 | 0.471 | 0.46 | 0.475 | 0.649 | 0.523 | 0.493
IRSGIYFKPES [L2HGDH_Y102_H98R_YF] | 1.13 | 0.642 | 0.776 | 0.467 | 0.542 | 0.625 | 0.768 | 0.95 | 0.687 | 0.913 | 4.3 | 0.63 | 0.786 | 1.19 | 0.673 | 2.88
ISRDVYSTDYY [NTRK2_Y702_M697I] | 0.719 | 0.543 | 0.745 | 0.703 | 4.9 | 3.13 | 3.34 | 1.04 | 2.51 | 1.83 | 6.57 | 2.43 | 1.95 | 1.12 | 4.67 | 0.69
ITGNGYFFRVF [MYBPC3_Y1135_I1131T_YF] | 0.735 | 0.457 | 0.75 | 0.416 | 0.451 | 0.595 | 0.358 | 1.08 | 0.493 | 0.906 | 0.305 | 0.496 | 0.377 | 0.99 | 0.31 | 0.647
IVAREYYSEAD [CAMK2A_Y106] | 0.645 | 3.2 | 0.886 | 0.586 | 0.618 | 0.81 | 0.474 | 1.2 | 0.552 | 1.03 | 0.455 | 0.557 | 0.557 | 1.01 | 0.548 | 0.664
IWIFHYAKGQP [MPZ_Y82_S78W] | 1.55 | 0.795 | 1.18 | 0.459 | 0.348 | 0.768 | 0.49 | 1.55 | 0.498 | 1.26 | 0.446 | 0.578 | 0.411 | 1.28 | 0.577 | 1.09
IYETDYYQKGG [INSR_Y1189_R1191Q] | 0.442 | 0.773 | 0.915 | 1.6 | 1.52 | 1.46 | 1.46 | 1.08 | 0.948 | 1.88 | 4.71 | 1.2 | 1.37 | 0.819 | 1.37 | 0.629
KDFNKYVAYIE [KDM4B_Y31] | 1.14 | 0.927 | 0.83 | 0.359 | 0.375 | 0.53 | 0.365 | 0.767 | 0.449 | 0.718 | 0.379 | 0.461 | 0.485 | 0.603 | 0.364 | 0.483
KDHRDYKFQPR [SOX9_Y172_P170R_YF] | 1.04 | 0.947 | 1.19 | 0.388 | 0.462 | 0.471 | 0.49 | 0.586 | 0.346 | 0.543 | 0.583 | 0.426 | 0.421 | 0.51 | 0.423 | 0.683
KDLPNYNWKSF [KISS1_Y112_N115K] | 0.475 | 0.38 | 0.664 | 0.464 | 0.418 | 0.598 | 0.438 | 0.865 | 0.529 | 0.655 | 0.455 | 0.532 | 0.439 | 0.918 | 0.588 | 0.72
KDQGGYAMHQD [MAPT_Y29_T30A] | 0.399 | 0.485 | 0.805 | 0.419 | 0.329 | 0.574 | 0.392 | 0.798 | 0.476 | 0.677 | 0.426 | 0.406 | 0.471 | 0.528 | 0.487 | 0.557
